{"source": "paper PMC4720418", "about": "“Experimental validation of in silico model‐predicted isocitrate dehydrogenase and phosphomannose isomerase from D ehalococcoides mccartyi” (Microbial Biotechnology, 2015)", "proteins": {"B1": {"name": "DmIDH (KB1_0495) (Dehalococcoides mccartyi CBDB1) (protein)", "chain": "MYHNVTLIPGDGIGPEISEATRRVLEATGVKFNWEVVNAGADVVAEYGTPLPDMVLESIRKNKVAIKGPVTTPVGSGFRSVNVGMRKALNLYTCLRPCKTYPGVPSRYDNVDIVIVRENMEDLYAGIEFEKGSAEALRLIEFIKENKKVEIRTDSGISIKPISVFGTERIFRWAFKYAKDNNRKKVTAVHKANIMKYSDGLFLAVGRKVAEEYPEIEFEDRIVDNMTMQLVKTPTQFDILVCPNLYGDILSDLCAGLVGGLGVAPGANIGDEYALFEPTHGSAPKYKGLNKVNPMAMMLSGVLMLRYLKEEKAADKLENAIAAVIAEGKSVTYDMLSPDKQAVAVGTSQVADAIIAKMK", "notes": "recombinant, N-terminal 6xHis tag with TEV site (modified pET-15b), E. coli BL21(DE3), Ni-NTA and gel filtration"}}, "assay_in_all_cases": "purified protein", "format_in_all_cases": "biochemical, Dehalococcoides mccartyi", "key": {"purified protein [1]": {"substrate": "NC(=O)c1ccc[n+]([C@@H]2O[C@H](COP(=O)(O)OP(=O)(O)OC[C@H]3O[C@@H](n4cnc5c(N)ncnc54)[C@H](O)[C@@H]3O)[C@@H](O)[C@H]2O)c1", "conditions": "D-isocitric acid as co-substrate (1 mM in standard assay), 10 mM MgCl2, 50 mM Tris-HCl pH 7.5 (standard assay; kinetics at selected pH), 30 °C, varied: cofactor"}, "purified protein [2]": {"substrate": "O=C(O)C[C@H](C(=O)O)[C@@H](O)C(=O)O", "conditions": "0.3 mM NADP+, 10 mM MgCl2, 50 mM Tris-HCl pH 7.5 (standard assay; kinetics at selected pH), 30 °C"}, "purified protein [3]": {"substrate": "NC(=O)c1ccc[n+]([C@@H]2O[C@H](COP(=O)(O)OP(=O)(O)OC[C@H]3O[C@@H](n4cnc5c(N)ncnc54)[C@H](OP(=O)(O)O)[C@@H]3O)[C@@H](O)[C@H]2O)c1", "conditions": "D-isocitric acid as co-substrate (1 mM in standard assay), 10 mM MgCl2, 50 mM Tris-HCl pH 7.5 (standard assay; kinetics at selected pH), 30 °C, varied: cofactor"}}, "data": [{"protein": "B1", "values": [{"measurement": "Km", "setting": "purified protein [1]", "result": "120 ± 40", "unit": "µM"}, {"measurement": "Vmax", "setting": "purified protein [1]", "result": 0.32, "unit": "µmol/min/mg"}, {"measurement": "kcat", "setting": "purified protein [1]", "result": "0.22 ± 0.03", "unit": "s⁻¹"}, {"measurement": "kcat/Km", "setting": "purified protein [1]", "result": "2000 ± 1000", "unit": "M⁻¹ s⁻¹"}, {"measurement": "Km", "setting": "purified protein [2]", "result": "110 ± 10", "unit": "µM"}, {"measurement": "Vmax", "setting": "purified protein [2]", "result": 21.3, "unit": "µmol/min/mg"}, {"measurement": "kcat", "setting": "purified protein [2]", "result": "15 ± 1", "unit": "s⁻¹"}, {"measurement": "kcat/Km", "setting": "purified protein [2]", "result": "139600 ± 1000", "unit": "M⁻¹ s⁻¹"}, {"measurement": "Km", "setting": "purified protein [3]", "result": "27 ± 20", "unit": "µM"}, {"measurement": "Vmax", "setting": "purified protein [3]", "result": 20.8, "unit": "µmol/min/mg"}, {"measurement": "kcat", "setting": "purified protein [3]", "result": "14.6 ± 1", "unit": "s⁻¹"}, {"measurement": "kcat/Km", "setting": "purified protein [3]", "result": "540000 ± 1000", "unit": "M⁻¹ s⁻¹"}]}]}
